The values below are quoted from earlier work in publication PMC3193156.

The subject of one series is Cys117. To be noted: Resting state (free reduced enzyme).
In the next series the test system is His103. To be noted: Resting state (free reduced enzyme).
The target of another series is His80 (UniProt position 80, GNGLGHEFLND). Put plainly: NMR.
Another series has as its target Cys95 (UniProt position 95, GQSRFCIFSSS). Put plainly: NMR.

As for “Methionine sulfoxide reductase B (MsrB domain of PilB) (Neisseria meningitidis)”, the pKa in the series with Cys117 is listed as 9.3; in the series with His103, 6.6.
On to “Methionine-R-sulfoxide reductase B1 (MsrB1, selenoprotein R), Cys95 form (Mus musculus; U95C)”, for which the figures for the pKa with His80 and with Cys95 were 5.7 and 6.0, respectively.

One may read the pKa as the pH at which an ionisable group is half protonated.
